Here are results for 53 sequences from the supplement of paper PMC10567573.

The series is described as follows: protein stability index of a GFP-peptide fusion (GPS, HEK-293T) (PSI 1-6); higher = more stable.
Where [1] appears, read: treatment: DMSO, c terminus: a fixed tail appended.
The mark [2] stands for this setting: treatment: MLN4924 1 uM, 8 h, c terminus: a fixed tail appended.

± gives the standard deviation.
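Further: 24-mer peptide tiles fused after GFP, lentivirally expressed, FACS-sorted into six equal bins by GFP/DsRed ratio, decoded by Illumina sequencing, PSI is the read-weighted mean bin number.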

In the case of MLDFLSERPWIKRMIFKLFSQETV [APMAP], the protein stability index by setting is: under setting [1], 1.98 ± 0.3; under setting [2], 1.82 ± 0.26.

In the case of KQKTSAALSTMGTLICRKLGGVKK [TPD52L3], the protein stability index under setting [1] was found to be 2.98 ± 0.29 and the protein stability index under setting [2] was determined as 2.83 ± 0.34.

For QQAVEQIAKAEETHSSLSQELQAR [CCDC89], the protein stability index turned out to be 5.2 ± 0.25 under setting [1] and 5.23 ± 0.28 under setting [2].

NLFEGMIWFIVPISCVICNDIMAY [CDS2]: the protein stability index runs as follows: under setting [1], 3.44 ± 0.44; under setting [2], 3.26 ± 0.74.

Sequence AVVSCTPVHLVDKLPLPIALRSHL [RAB40B] registered a protein stability index under setting [1] of 2.65 ± 0.12 and a protein stability index under setting [2] of 1.98 ± 0.41.

Regarding VGFIMAGTPMALIVISYIHVAAAV [OR3A1], the protein stability index by setting is: under setting [1], 3.27 ± 0.35; under setting [2], 2.87 ± 0.32.

For the sequence LRRGHPAGGEENMTETDAFYKREM [CASP6], the protein stability index by setting is: under setting [1], 4.9 ± 0.2; under setting [2], 4.43 ± 0.84.

Take YLSPRDFLSGLAFRVFHCTQYVRH [TPH1]: the protein stability index reads like this: under setting [1], 2.31 ± 0.2; under setting [2], 2.08 ± 0.17.

As for HGAVTVGGTSVGSLGVPGSVGGVP [ZBTB22], the protein stability index came to 4.02 ± 0.61 under setting [1] and 4.06 ± 0.37 under setting [2].

In the case of ASAAAATAAFTTAKAAALSTKTPA [SPAG8], the protein stability index under setting [1] was found to be 4.48 ± 0.26 and the protein stability index under setting [2] amounted to 4.57 ± 0.2.

In the case of LASPHTVAAVLEAVAQTAHLPADS [RSAD1], the protein stability index under setting [1] came out at 3.61 ± 0.33 and the protein stability index under setting [2] was determined as 3.83 ± 0.25.

For IFFMAAFAFSNGYLASLCMCFGPK [SLC29A1], the protein stability index under setting [1] came out at 2.42 ± 0.38 and the protein stability index under setting [2] amounted to 2.52 ± 0.34.

On to AGLLIIVLAIIAREGDCAPEEKIW [MAGEA3], for which the protein stability index reads like this: under setting [1], 3.25 ± 0.46; under setting [2], 2.8 ± 0.34.

Regarding AEAEALYSAYIRRCACAASSDESP [TTC32], the protein stability index turned out to be 3.25 ± 0.28 under setting [1] and 3.42 ± 0.3 under setting [2].

In the case of RDGYGMTPLLAASVTGHTNIVEYL [FEM1A], the protein stability index stood at 2.92 ± 0.22 under setting [1] and 2.93 ± 0.24 under setting [2].

In the case of NQEILLPGGITSHQLLGLFPSTSY [TNXB], the protein stability index reads like this: under setting [1], 2.58 ± 0.092; under setting [2], 2.53 ± 0.27.

Take GHNFCRGCVSRCWEVQVSPTCPVC [TRIM35]: the protein stability index came out at 3.86 ± 0.22 under setting [1] and 3.83 ± 0.38 under setting [2].

AFDFDYGNCKYKVDCACLKENPEC [KMT2E] returned a protein stability index under setting [1] of 3.53 ± 0.17 and a protein stability index under setting [2] of 3.54 ± 0.42.

As for NLVSVGYQAGKPDALTKLEQGEPL [ZNF649], the protein stability index by setting is: under setting [1], 4.39 ± 0.27; under setting [2], 4.17 ± 0.4.

For RYGRRTAIILSSCLLGLGSLVLIL [SLC2A12], the protein stability index reads like this: under setting [1], 5.23 ± 0.14; under setting [2], 5.1 ± 0.14.

As to FMRTSVKISYIGLMTQSSLETHHY [TMEM106C], the protein stability index is 3.07 ± 0.75 under setting [1] and 2.63 ± 0.38 under setting [2].

As for VTNHNIRLFEDVRSWMFRRGPLNS [TRIM43], the protein stability index under setting [1] is 2.56 ± 0.45 and the protein stability index under setting [2] is 2.49 ± 0.18.

TKSPCESNNKKNDEMQEVPNRVLA [SPANXN3] returned a protein stability index under setting [1] of 5.22 ± 0.2 and a protein stability index under setting [2] of 5.33 ± 0.19.

Consider GASDNSIIMWDIGGRKGRTLLLQG [WDFY1], for which the protein stability index is, setting by setting: under setting [1], 2.15 ± 0.36; under setting [2], 2.19 ± 0.35.

In turn, GPPHARISQHGDPLLSNTFTETNN [EMID1] registered a protein stability index under setting [1] of 4.31 ± 0.13 and a protein stability index under setting [2] of 4.748 ± 0.028.

For RKHALERFEQEAVAVDSNLRVREL [CCDC89], the protein stability index was 4.21 ± 0.12 under setting [1] and 4.47 ± 0.21 under setting [2].

Turning to KPSKELKPLLGSAVLGLLLVLAAV [MYORG], the protein stability index by setting is: under setting [1], 2.4 ± 0.25; under setting [2], 2.34 ± 0.28.

Consider QGQYETIERLRSLSPKIMQEAFLV [TBC1D10A], for which the protein stability index is, setting by setting: under setting [1], 2.32 ± 0.21; under setting [2], 2.22 ± 0.27.

In the case of TATTAPPALDIFGDLFESTPEVAA [SNAP91], the protein stability index reads like this: under setting [1], 4.62 ± 0.29; under setting [2], 4.71 ± 0.2.

For VRKSRDKAKRRNQEMQQKLVELSA [CEBPD], the protein stability index is 3.78 ± 0.34 under setting [1] and 3.72 ± 0.43 under setting [2].

Turning to ELEQQIWKERDEYITKVSEEVTRL [TRIM15], the protein stability index is, setting by setting: under setting [1], 3.94 ± 0.21; under setting [2], 3.95 ± 0.27.

For ASQHSYPLNRFSSVPLDPMERPMS [CBY2], the protein stability index is, setting by setting: under setting [1], 3.92 ± 0.33; under setting [2], 3.98 ± 0.32.

KHLTDTSHGVRNKCLQLLGNLGSL [INTS4]: the protein stability index reads like this: under setting [1], 2.45 ± 0.4; under setting [2], 2.46 ± 0.42.

Take LKEAPVQDQGYKTLRLRENCVLSS [ZNF8]: the protein stability index reads like this: under setting [1], 3.88 ± 0.12; under setting [2], 3.84 ± 0.1.

With LPGGTTGLQLPSTLPVSGNLLDVY [TFE3], the protein stability index was determined as 3.24 ± 0.31 under setting [1] and 3.23 ± 0.17 under setting [2].

On to RSNADYQYQLLRCNVDLLKIIQLG [CNOT7], for which the protein stability index reads like this: under setting [1], 2.61 ± 0.46; under setting [2], 2.51 ± 0.34.

In turn, HTVGVLFNNGAHMSLLPDKKTVHY [PLK2] showed a protein stability index under setting [1] of 2.65 ± 0.33 and a protein stability index under setting [2] of 2.66 ± 0.22.

For the sequence AEMPHTETVSPLPSSMDLLIQDSP [NANOGP8], the protein stability index under setting [1] stood at 5.09 ± 0.19 and the protein stability index under setting [2] came out at 5.32 ± 0.2.

DCMLSEEGATLLLRGLCANTVLRF [LRRC45]: the protein stability index was determined as 2.44 ± 0.48 under setting [1] and 2.42 ± 0.4 under setting [2].

The sequence TFGNSTLALGPGESLPHRLSCLGQ [PLAGL1] returned a protein stability index under setting [1] of 3.19 ± 0.18 and a protein stability index under setting [2] of 3.29 ± 0.18.

In turn, AKNFHVKAVMKTSVLLSWEIPENY [PTPRD] yielded a protein stability index under setting [1] of 2.89 ± 0.27.

As for APMVAGALARLGTVTVISPLELMR [SLC25A39], the protein stability index reads like this: under setting [1], 2.35 ± 0.22; under setting [2], 2.41 ± 0.32.

HPVPLSFEPVKSFFKGLVEAVEST [TRIM14] showed a protein stability index under setting [1] of 2.6 ± 0.41 and a protein stability index under setting [2] of 2.26 ± 0.42.

For the sequence GHSHHSHHGHPSHQSHSLPNRRH [C10orf62], the protein stability index was found to be 2.97 ± 0.49 (treatment: DMSO, c terminus: native) and 3.71 ± 0.35 (treatment: MLN4924 1 uM, 8 h, c terminus: native).

Turning to DTRLRYSFFVPRPTPSTPRPTPQD [ADAMTS4], the protein stability index was determined as 3.64 ± 0.15 under setting [1] and 3.74 ± 0.089 under setting [2].

CSTNKPEGYRVSQALRENTYPFLA [FAF2] showed a protein stability index under setting [1] of 2.54 ± 0.2 and a protein stability index under setting [2] of 2.53 ± 0.4.

Take ALASISHVAHVTITTKTADGKCAY [MLH1]: the protein stability index under setting [2] was found to be 2.63 ± 0.3.

AHKCLECGKCFSQNTHLTRHQRTH [ZNF263]: the protein stability index under setting [1] worked out at 4.92 ± 0.14 and the protein stability index under setting [2] amounted to 5 ± 0.3.

As to STKPSGSPLEEKHDQCKCENLIMF [MATN2], the protein stability index turned out to be 3.3 ± 0.15 under setting [1] and 3.41 ± 0.099 under setting [2].

Turning to KKAWDDLKKYLEPRCPRMVLSLKE [FBXO3], the protein stability index runs as follows: under setting [1], 2.78 ± 0.26; under setting [2], 2.86 ± 0.17.

Consider RLIKELAKYEYMEEQVILTEKDLL [SAT1], for which the protein stability index reads like this: under setting [1], 2.34 ± 0.34; under setting [2], 2.18 ± 0.25.

On to ELESIRQDRDALHMEGLIVRERIL [FEM1B], for which the protein stability index under setting [1] was determined as 3.44 ± 0.27 and the protein stability index under setting [2] worked out at 3.52 ± 0.36.

Consider VQLHNGTKYKKFPHWLDKWMLTRK [STEAP1], for which the protein stability index reads like this: under setting [1], 2.36 ± 0.044; under setting [2], 2.19 ± 0.096.
